Assays:
Assay in all cases: SPR, antibody captured, C2 as analyte;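 note: biacore at 37 °C, anti-C2 mAbs held by immobilised goat anti-human IgG, C2 alanine or serine mutants injected, double-referenced sensorgrams fitted to a 1:1 kinetic or steady-state model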
[1] = target: T1, human C2 D417A (human, UniProt P06681 21-752)
T1 sequence: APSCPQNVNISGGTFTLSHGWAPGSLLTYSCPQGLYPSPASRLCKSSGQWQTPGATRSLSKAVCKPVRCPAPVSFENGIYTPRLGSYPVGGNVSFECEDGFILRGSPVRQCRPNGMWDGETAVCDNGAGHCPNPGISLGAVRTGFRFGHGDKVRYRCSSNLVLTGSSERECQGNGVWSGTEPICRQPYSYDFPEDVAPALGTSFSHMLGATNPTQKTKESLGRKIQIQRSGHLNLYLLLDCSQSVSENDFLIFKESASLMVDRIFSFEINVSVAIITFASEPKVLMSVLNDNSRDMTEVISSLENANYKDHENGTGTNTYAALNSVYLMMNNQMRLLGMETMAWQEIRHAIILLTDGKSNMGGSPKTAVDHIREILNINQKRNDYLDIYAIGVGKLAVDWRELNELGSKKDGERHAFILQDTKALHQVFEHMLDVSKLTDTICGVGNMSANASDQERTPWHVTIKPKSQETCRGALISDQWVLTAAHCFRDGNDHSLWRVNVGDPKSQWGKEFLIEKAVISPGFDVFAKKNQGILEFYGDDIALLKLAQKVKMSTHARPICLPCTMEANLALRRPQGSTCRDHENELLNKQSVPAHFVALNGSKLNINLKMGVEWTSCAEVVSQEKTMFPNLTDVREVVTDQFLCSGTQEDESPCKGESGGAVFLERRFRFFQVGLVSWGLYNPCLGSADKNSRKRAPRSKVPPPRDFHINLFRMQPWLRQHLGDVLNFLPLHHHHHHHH

[2] = target: T2, human C2 L271A (human, UniProt P06681 21-752)
T2 sequence: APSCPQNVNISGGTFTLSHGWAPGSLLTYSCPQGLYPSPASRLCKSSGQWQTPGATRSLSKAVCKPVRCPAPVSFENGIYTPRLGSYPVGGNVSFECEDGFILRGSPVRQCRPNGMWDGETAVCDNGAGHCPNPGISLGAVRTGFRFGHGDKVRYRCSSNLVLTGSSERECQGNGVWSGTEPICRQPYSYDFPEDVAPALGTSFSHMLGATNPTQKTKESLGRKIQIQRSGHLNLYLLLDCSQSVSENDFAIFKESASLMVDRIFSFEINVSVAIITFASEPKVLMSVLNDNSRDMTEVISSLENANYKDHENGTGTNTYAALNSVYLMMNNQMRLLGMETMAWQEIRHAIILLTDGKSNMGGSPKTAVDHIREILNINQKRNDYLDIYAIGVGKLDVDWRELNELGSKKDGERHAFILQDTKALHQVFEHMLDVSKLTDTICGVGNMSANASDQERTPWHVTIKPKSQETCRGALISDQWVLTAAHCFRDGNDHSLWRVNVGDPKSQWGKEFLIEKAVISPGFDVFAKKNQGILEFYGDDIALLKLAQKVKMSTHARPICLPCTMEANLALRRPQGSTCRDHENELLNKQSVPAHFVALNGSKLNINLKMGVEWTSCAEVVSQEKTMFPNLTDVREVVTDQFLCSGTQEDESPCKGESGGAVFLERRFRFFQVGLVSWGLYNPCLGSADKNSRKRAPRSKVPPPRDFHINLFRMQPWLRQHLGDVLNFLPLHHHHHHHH

[3] = target: T3, human C2 L620A (human, UniProt P06681 21-752)
T3 sequence: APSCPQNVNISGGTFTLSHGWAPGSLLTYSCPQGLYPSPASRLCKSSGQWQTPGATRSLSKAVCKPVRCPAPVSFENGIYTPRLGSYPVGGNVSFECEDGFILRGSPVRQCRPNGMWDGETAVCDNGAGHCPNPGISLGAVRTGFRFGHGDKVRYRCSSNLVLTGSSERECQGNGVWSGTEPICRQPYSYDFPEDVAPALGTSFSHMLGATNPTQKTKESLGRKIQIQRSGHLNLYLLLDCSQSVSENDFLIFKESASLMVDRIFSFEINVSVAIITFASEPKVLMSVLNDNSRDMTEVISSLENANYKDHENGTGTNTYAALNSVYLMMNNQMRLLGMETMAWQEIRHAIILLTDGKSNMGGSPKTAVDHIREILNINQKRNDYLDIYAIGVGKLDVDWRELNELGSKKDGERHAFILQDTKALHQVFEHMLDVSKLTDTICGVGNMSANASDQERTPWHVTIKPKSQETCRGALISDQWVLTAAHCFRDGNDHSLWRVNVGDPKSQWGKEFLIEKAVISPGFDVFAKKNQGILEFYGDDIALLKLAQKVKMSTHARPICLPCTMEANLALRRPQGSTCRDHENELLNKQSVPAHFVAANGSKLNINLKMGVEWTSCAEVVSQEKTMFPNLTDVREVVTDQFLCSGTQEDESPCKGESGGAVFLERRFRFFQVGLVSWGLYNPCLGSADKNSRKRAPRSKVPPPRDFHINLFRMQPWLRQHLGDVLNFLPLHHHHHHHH

[4] = target: T4, human C2 G677A (human, UniProt P06681 21-752)
T4 sequence: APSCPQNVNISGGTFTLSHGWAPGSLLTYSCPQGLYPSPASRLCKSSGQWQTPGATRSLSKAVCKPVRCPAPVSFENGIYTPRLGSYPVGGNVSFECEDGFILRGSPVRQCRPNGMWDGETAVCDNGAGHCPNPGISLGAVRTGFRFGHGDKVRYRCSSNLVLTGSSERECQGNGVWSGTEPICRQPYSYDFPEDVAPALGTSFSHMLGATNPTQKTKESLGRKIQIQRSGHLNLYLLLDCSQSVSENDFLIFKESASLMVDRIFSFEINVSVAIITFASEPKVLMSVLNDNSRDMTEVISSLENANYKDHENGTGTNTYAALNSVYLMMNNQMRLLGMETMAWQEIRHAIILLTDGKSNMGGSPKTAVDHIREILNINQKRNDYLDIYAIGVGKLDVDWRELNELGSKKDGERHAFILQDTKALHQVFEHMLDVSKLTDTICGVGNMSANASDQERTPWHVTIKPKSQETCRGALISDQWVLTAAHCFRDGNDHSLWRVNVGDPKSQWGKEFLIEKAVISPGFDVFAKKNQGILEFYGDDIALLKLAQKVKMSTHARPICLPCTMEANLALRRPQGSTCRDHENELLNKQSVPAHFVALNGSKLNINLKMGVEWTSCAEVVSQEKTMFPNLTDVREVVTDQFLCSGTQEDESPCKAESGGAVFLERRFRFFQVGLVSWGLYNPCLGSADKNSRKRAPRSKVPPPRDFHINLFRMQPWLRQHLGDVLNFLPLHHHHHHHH

B1: RF16-242 (antibody, human IgG4 S228P, lambda, V domains shown)
VH: EVQLLQSGAEVKKPGESLKISCKGSGYSFTSYWIGWVRQMPGKGLEWMGIIYPGDSDTRYSPSFQGQVTISADKSISTAYLQWSSLKASDTAMYYCARRGHYGDYFDYWGQGTLVTVSS
VL: SYELTQPPSVSVSPGQTARITCSGDALPKKYAYWYHQKSGQAPVLVIYEDRRRPSEIPERFSGSSSGTMATLTITGAQVEDEGVYFCYSRDRAGNQRVFGGGTQLTVLG
notes: pH-dependent anti-C2 antibody from a phage display library
- Kd [1]: 23 nM
- Kd [2]: 6.9 nM
- Kd [3]: 8 nM
- Kd [4]: 6.8 nM
